Assay results published in patent EP2390325A1, “FLAVONOID-3-GLUCURONYLTRANSFERASE AND POLYNUCLEOTIDE ENCODING SAME” (Suntory Holdings Limited, priority 2009, dated 2010).

Key:
VvGT5 [1] = target: T1, VvGT5 (Vitis vinifera, UniProt C7G3B5); assay: Glycosyl donor specificity of VvGT5, product amount by HPLC; type: biochemical; settings: 100 µM quercetin, 1 mM glycosyl donor, pH 9.5, 30°C, 15 minutes
T1 sequence (C7G3B5 1-459): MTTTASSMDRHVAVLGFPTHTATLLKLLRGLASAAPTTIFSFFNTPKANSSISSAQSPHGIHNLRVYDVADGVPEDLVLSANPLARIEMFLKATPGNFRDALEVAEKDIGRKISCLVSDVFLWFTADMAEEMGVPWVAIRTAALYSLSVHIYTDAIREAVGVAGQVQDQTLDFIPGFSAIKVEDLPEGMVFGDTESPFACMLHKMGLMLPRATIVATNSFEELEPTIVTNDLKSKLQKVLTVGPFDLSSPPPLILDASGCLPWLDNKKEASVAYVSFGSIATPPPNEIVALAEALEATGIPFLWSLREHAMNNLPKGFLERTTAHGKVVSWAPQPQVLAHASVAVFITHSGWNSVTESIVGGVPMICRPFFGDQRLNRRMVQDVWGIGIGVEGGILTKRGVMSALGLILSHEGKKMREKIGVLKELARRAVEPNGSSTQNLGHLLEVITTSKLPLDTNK
Method: (§1) Next, the glycosyl donor specificity of this enzyme was examined. […] The reaction was started by adding the glycosyl acceptor. The reaction was stopped by adding an equal volume of 40% acetonitrile solution containing 0.1% TFA. After the reaction was stopped, the solution was centrifuged (15000 rpm, 2 mins., 4°C) and 100 µl of the resulting supernatant was provided for the HPLC analysis. The amounts of the products produced in the respective glycosyl donors were compared.

VvGT5 [2] = target: T1, VvGT5; assay: Glycosyl acceptor specificity of VvGT5, product amount by HPLC; type: biochemical; settings: 100 µM glycosyl acceptor, 1 mM UDP-glucuronic acid, pH 9.5, 30°C, 15 minutes
Method: as §1, with “acceptor” for “donor”, “were compared for each” for “in the respective”, “acceptor.” for “donors were compared.”
Anthocyanins were analyzed under the conditions below using the HPLC system described above. Conditions for the HPLC analysis of anthocyanins were as follows. Asahipak ODP-50 4E (4.6 x 250 mm, Showa Denko K.K.) as a column was used at room temperature. Moving phase A (0.5% TFA/H2O) and moving phase B (0.5% TFA/50% GH3CN) were used. Conditions for elution were as follows: Equilibration was performed with B30% for 3 minutes, followed by linear density gradients (B30%→B65%) for 15 minutes and (B65%→B100%) for further 1 minute, which was maintained for 5 minutes at B100%. Thereafter, the condition was again reverted to B30% to equilibrate for 10 minutes. The flow rate was 0.7 ml/min. Detection was performed at 520 nm. Under the conditions, standard pelargonidin, cyanidin and delphinidin were sequentially eluted in this order at retention times of approximately […], respectively.

[3] = substrate: O=C(O)[C@H]1O[C@H](OP(=O)(O)OP(=O)(O)OC[C@H]2O[C@@H](n3ccc(=O)[nH]c3=O)[C@H](O)[C@@H]2O)[C@H](O)[C@@H](O)[C@@H]1O; assay: purified protein, by the assay type; settings: other: glycosyl donor; purified His-tagged VvGT5; pH 9.5; 30.0 °C
[4] = substrate: O=c1c(O)c(-c2ccc(O)c(O)c2)oc2cc(O)cc(O)c12; assay: Kinetic analysis of VvGT5 (Km, kcat); type: biochemical, Vitis vinifera; settings: other: glycosyl acceptor substrate; purified His-tagged VvGT5; pH 9.5; 30.0 °C
[5] = substrate: COc1cc(-c2oc3cc(O)cc(O)c3c(=O)c2O)ccc1O; assay: Kinetic analysis of VvGT5 (Km, kcat); type: biochemical, Vitis vinifera; settings: other: glycosyl acceptor substrate; purified His-tagged VvGT5; pH 9.5; 30.0 °C
[6] = substrate: O=c1c(O)c(-c2ccc(O)cc2)oc2cc(O)cc(O)c12; assay: Kinetic analysis of VvGT5 (Km, kcat); type: biochemical, Vitis vinifera; settings: other: glycosyl acceptor substrate; purified His-tagged VvGT5; pH 9.5; 30.0 °C

Molecule: O=C(O)[C@H]1O[C@H](OP(=O)(O)OP(=O)(O)OC[C@H]2O[C@@H](n3ccc(=O)[nH]c3=O)[C@H](O)[C@@H]2O)[C@H](O)[C@@H](O)[C@@H]1O [UDP-glucuronic acid]
- product formation with glycosyl donor (VvGT5 [1]): the product was obtained only when UDP-glucuronic acid was used as the substrate

Molecule: O=c1c(O)c(-c2ccc(O)c(O)c2)oc2cc(O)cc(O)c12 [quercetin]
- activity of VvGT5 on glycosyl acceptor (VvGT5 [2]): highest activity

B1: VvGT5 (Vitis vinifera) (protein)
chain: MTTTASSMDRHVAVLGFPTHTATLLKLLRGLASAAPTTIFSFFNTPKANSSISSAQSPHGIHNLRVYDVADGVPEDLVLSANPLARIEMFLKATPGNFRDALEVAEKDIGRKISCLVSDVFLWFTADMAEEMGVPWVAIRTAALYSLSVHIYTDAIREAVGVAGQVQDQTLDFIPGFSAIKVEDLPEGMVFGDTESPFACMLHKMGLMLPRATIVATNSFEELEPTIVTNDLKSKLQKVLTVGPFDLSSPPPLILDASGCLPWLDNKKEASVAYVSFGSIATPPPNEIVALAEALEATGIPFLWSLREHAMNNLPKGFLERTTAHGKVVSWAPQPQVLAHASVAVFITHSGWNSVTESIVGGVPMICRPFFGDQRLNRRMVQDVWGIGIGVEGGILTKRGVMSALGLILSHEGKKMREKIGVLKELARRAVEPNGSSTQNLGHLLEVITTSKLPLDTNK
- Km [3]: 17.7 µM
- Km [4]: 5.60 ± 1.76 µM
- kcat [4]: 7.16 ± 0.37 s⁻¹
- Km [5]: 7.92 ± 0.32 µM
- kcat [5]: 0.413 ± 0.03 s⁻¹
- Km [6]: 10.8 ± 0.4 µM
- kcat [6]: 6.05 ± 0.05 s⁻¹
